In IntAct's records for PubMed 25910212:

B1: Inactive peptidyl-prolyl cis-trans isomerase FKBP6 (Homo sapiens), O75344 (parent)
chain: MGGSALNQGVLEGDDAPGQSLYERLSQRMLDISGDRGVLKDVIREGAGDLVAPDASVLVKYSGYLEHMDRPFDSNYFRKTPRLMKLGEDITLWGMELGLLSMRRGELARFLFKPNYAYGTLGCPPLIPPNTTVLFEIELLDFLDCAESDKFCALSAEQQDQFPLQKVLKVAATEREFGNYLFRQNRFYDAKVRYKRALLLLRRRSAPPEEQHLVEAAKLPVLLNLSFTYLKLDRPTIALCYGEQALIIDQKNAKALFRCGQACLLLTEYQKARDFLVRAQKEQPFNHDINNELKKLASCYRDYVDKEKEMWHRMFAPCGDGSTAGES
partner: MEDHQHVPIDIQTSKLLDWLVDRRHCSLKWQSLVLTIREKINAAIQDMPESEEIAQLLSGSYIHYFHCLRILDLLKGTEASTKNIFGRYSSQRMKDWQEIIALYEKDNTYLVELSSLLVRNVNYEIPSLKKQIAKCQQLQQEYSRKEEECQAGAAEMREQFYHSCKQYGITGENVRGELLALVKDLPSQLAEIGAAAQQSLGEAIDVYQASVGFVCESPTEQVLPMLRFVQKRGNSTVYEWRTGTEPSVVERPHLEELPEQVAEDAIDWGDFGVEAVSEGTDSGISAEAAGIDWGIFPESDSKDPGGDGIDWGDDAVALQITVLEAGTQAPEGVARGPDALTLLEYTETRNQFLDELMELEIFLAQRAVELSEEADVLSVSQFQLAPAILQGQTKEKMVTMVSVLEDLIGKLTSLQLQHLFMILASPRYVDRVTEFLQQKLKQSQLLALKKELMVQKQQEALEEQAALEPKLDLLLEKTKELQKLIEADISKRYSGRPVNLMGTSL
B2: U4/U6 small nuclear ribonucleoprotein Prp31 (Homo sapiens), Q8WWY3 (parent)
chain: MSLADELLADLEEAAEEEEGGSYGEEEEEPAIEDVQEETQLDLSGDSVKTIAKLWDSKMFAEIMMKIEEYISKQAKASEVMGPVEAAPEYRVIVDANNLTVEIENELNIIHKFIRDKYSKRFPELESLVPNALDYIRTVKELGNSLDKCKNNENLQQILTNATIMVVSVTASTTQGQQLSEEELERLEEACDMALELNASKHRIYEYVESRMSFIAPNLSIIIGASTAAKIMGVAGGLTNLSKMPACNIMLLGAQRKTLSGFSSTSVLPHTGYIYHSDIVQSLPPDLRRKAARLVAAKCTLAARVDSFHESTEGKVGYELKDEIERKFDKWQEPPPVKQVKPLPAPLDGQRKKRGGRRYRKMKERLGLTEIRKQANRMSFGEIEEDAYQEDLGFSLGHLGKSGSGRVRQTQVNEATKARISKTLQRTLQKQSVVYGGKSTIRDRSSGTASSVAFTPLQGLEIVNPQAAEKKVAEANQKYFSSMAEFLKVKGEKSGLMST
partner: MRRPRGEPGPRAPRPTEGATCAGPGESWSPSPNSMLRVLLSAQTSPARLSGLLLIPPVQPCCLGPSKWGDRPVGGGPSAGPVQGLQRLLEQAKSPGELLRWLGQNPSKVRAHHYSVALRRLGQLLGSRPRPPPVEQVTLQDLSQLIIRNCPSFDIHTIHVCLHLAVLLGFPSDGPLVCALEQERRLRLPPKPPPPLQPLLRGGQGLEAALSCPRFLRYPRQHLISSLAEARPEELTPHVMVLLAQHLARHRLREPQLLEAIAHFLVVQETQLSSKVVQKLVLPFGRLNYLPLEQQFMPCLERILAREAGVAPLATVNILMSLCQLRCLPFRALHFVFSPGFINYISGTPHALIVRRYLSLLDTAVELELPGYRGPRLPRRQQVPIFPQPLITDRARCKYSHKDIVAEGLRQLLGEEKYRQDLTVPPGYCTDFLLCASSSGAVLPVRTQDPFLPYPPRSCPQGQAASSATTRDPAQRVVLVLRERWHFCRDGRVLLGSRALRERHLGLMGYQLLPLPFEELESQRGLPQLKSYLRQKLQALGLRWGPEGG
B3: U4/U6 small nuclear ribonucleoprotein Prp31 (Homo sapiens), Q8WWY3 (parent)
chain: B2 chain
partner: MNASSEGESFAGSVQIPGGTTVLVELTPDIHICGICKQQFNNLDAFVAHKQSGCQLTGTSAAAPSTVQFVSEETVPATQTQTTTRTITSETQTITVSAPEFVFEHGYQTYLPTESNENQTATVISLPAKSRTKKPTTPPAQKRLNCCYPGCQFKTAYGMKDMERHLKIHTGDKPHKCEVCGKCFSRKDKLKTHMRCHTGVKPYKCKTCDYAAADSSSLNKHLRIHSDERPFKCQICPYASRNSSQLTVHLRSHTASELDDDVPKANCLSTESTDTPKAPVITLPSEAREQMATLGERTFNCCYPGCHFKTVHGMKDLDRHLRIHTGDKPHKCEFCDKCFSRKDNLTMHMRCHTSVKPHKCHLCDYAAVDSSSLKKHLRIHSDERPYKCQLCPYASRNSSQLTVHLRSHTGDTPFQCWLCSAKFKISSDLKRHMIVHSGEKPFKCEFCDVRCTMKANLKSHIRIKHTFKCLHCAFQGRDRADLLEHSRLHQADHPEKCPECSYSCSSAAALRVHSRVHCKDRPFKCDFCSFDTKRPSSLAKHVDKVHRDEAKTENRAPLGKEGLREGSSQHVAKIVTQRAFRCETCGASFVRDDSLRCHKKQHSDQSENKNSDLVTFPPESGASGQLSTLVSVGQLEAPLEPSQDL
B4: Sulfotransferase 2B1 (Homo sapiens), O00204 (parent)
chain: MDGPAEPQIPGLWDTYEDDISEISQKLPGEYFRYKGVPFPVGLYSLESISLAENTQDVRDDDIFIITYPKSGTTWMIEIICLILKEGDPSWIRSVPIWERAPWCETIVGAFSLPDQYSPRLMSSHLPIQIFTKAFFSSKAKVIYMGRNPRDVVVSLYHYSKIAGQLKDPGTPDQFLRDFLKGEVQFGSWFDHIKGWLRMKGKDNFLFITYEELQQDLQGSVERICGFLGRPLGKEALGSVVAHSTFSAMKANTMSNYTLLPPSLLDHRRGAFLRKGVCGDWKNHFTVAQSEAFDRAYRKQMRGMPTFPWDEDPEEDGSPDPEPSPEPEPKPSLEPNTSLEREPRPNSSPSPSPGQASETPHPRPS
B5: EF-hand domain-containing protein 1 (Homo sapiens), Q5JVL4 (parent)
chain: MVSNPVHGLPFLPGTSFKDSTKTAFHRSQTLSYRNGYAIVRRPTVGIGGDRLQFNQLSQAELDELASKAPVLTYGQPKQAPPADFIPAHVAFDKKVLKFDAYFQEDVPMSTEEQYRIRQVNIYYYLEDDSMSVIEPVVENSGILQGKLIKRQRLAKNDRGDHYHWKDLNRGINITIYGKTFRVVDCDQFTQVFLESQGIELNPPEKMALDPYTELRKQPLRKYVTPSDFDQLKQFLTFDKQVLRFYAIWDDTDSMYGECRTYIIHYYLMDDTVEIREVHERNDGRDPFPLLMNRQRVPKVLVENAKNFPQCVLEISDQEVLEWYTAKDFIVGKSLTILGRTFFIYDCDPFTRRYYKEKFGITDLPRIDVSKREPPPVKQELPPYNGFGLVEDSAQNCFALIPKAPKKDVIKMLVNDNKVLRYLAVLESPIPEDKDRRFVFSYFLATDMISIFEPPVRNSGIIGGKYLGRTKVVKPYSTVDNPVYYGPSDFFIGAVIEVFGHRFIILDTDEYVLKYMESNAAQYSPEALASIQNHVRKREAPAPEAESKQTEKDPGVQELEALIDTIQKQLKDHSCKDNIREAFQIYDKEASGYVDRDMFFKICESLNVPVDDSLVKELIRMCSHGEGKINYYNFVRAFSN
partner: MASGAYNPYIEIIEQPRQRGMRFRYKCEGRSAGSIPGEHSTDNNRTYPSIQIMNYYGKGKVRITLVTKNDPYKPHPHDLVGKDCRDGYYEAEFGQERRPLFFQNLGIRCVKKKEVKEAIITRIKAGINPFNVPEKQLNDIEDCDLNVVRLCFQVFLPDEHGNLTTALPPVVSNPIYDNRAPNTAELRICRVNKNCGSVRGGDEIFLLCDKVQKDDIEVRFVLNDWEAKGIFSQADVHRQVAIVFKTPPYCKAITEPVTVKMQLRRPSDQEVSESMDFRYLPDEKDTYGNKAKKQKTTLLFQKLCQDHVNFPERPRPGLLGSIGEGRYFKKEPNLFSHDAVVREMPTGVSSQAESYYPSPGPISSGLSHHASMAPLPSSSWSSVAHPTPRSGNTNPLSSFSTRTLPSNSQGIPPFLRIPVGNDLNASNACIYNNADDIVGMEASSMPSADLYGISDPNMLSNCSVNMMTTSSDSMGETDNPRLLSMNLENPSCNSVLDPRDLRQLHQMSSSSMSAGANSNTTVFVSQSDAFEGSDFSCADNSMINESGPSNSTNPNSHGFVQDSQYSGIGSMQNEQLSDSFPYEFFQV

Variants of: B1
Settings: with ck5p3_human CDK5RAP3, Q96JB5

Variant	effect of a mutation on the interaction
R202H	with no effect

Variants of: B2
Settings: with fastk_human FASTK

Variant	effect of a mutation on the interaction
L107V	with no effect

Variants of: B3
Settings: with zf64b_human ZFP64, Q9NTW7

Variant	effect of a mutation on the interaction
L107V	with no effect

Variants of: B4
Settings: with st1b1_human SULT1B1, O43704
Sequence of st1b1_human SULT1B1, O43704 (O43704 whole entry): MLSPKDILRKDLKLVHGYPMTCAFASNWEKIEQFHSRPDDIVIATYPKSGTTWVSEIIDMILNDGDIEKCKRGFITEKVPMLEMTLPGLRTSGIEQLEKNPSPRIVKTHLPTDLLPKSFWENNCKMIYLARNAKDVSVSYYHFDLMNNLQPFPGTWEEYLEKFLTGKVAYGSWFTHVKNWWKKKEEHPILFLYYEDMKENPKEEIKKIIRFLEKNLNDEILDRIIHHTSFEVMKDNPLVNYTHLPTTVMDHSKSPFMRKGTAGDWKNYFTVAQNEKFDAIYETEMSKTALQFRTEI

Variant	effect of a mutation on the interaction
R230H	with no effect
D191N	with no effect

Variants of: B4
Settings: with st1a1_human SULT1A1, P50225
Sequence of st1a1_human SULT1A1, P50225 (P50225 whole entry, looked up): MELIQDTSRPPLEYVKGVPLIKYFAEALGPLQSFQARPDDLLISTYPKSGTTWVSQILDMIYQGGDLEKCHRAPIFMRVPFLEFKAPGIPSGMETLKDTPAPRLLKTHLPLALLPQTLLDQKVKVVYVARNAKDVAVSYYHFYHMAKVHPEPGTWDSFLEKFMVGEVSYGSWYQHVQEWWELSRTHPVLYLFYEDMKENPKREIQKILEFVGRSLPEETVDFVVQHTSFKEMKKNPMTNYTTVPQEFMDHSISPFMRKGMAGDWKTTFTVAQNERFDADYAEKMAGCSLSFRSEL

Variant	effect of a mutation on the interaction
R230H	with no effect
D191N	with no effect

Variants of: B5
Settings: with REL

Variant	effect of a mutation on the interaction
A394S	disrupting interaction strength
R221H	disrupting interaction strength
R159W	with no effect
